Experimental data from PMC6008203.

Biological target: PtmA2 (as used for analytical size-exclusion chromatography) (Streptomyces platensis CB00739)
Experiment: SEC

PtmA2 (as used for analytical size-exclusion chromatography) (enzyme)
stoichiometry N: 2
